In paper PMC3712289 (Nature structural & molecular biology, 2013):

B1: Rpt6 (natural protein, S. cerevisiae, UniProt Q01939 1-405, looked up)
chain: MTAAVTSSNIVLETHESGIKPYFEQKIQETELKIRSKTENVRRLEAQRNALNDKVRFIKDELRLLQEPGSYVGEVIKIVSDKKVLVKVQPEGKYIVDVAKDINVKDLKASQRVCLRSDSYMLHKVLENKADPLVSLMMVEKVPDSTYDMVGGLTKQIKEIKEVIELPVKHPELFESLGIAQPKGVILYGPPGTGKTLLARAVAHHTDCKFIRVSGAELVQKYIGEGSRMVRELFVMAREHAPSIIFMDEIDSIGSTRVEGSGGGDSEVQRTMLELLNQLDGFETSKNIKIIMATNRLDILDPALLRPGRIDRKIEFPPPSVAARAEILRIHSRKMNLTRGINLRKVAEKMNGCSGADVKGVCTEAGMYALRERRIHVTQEDFELAVGKVMNKNQETAISVAKLFK
B2: Rpn10 (natural protein, S. cerevisiae, UniProt P38886 1-268, looked up)
chain: MVLEATVLVIDNSEYSRNGDFPRTRFEAQIDSVEFIFQAKRNSNPENTVGLISGAGANPRVLSTFTAEFGKILAGLHDTQIEGKLHMATALQIAQLTLKHRQNKVQHQRIVAFVCSPISDSRDELIRLAKTLKKNNVAVDIINFGEIEQNTELLDEFIAAVNNPQEETSHLLTVTPGPRLLYENIASSPIILEEGSSGMGAFGGSGGDSDANGTFMDFGVDPSMDPELAMALRLSMEEEQQRQERLRQQQQQQDQPEQSEQPEQHQDK
B3: Rpt3 (natural protein, S. cerevisiae, UniProt P33298 1-428, looked up)
chain: MEELGIVTPVEKAVEEKPAVKSYASLLAQLNGTVNNNSALSNVNSDIYFKLKKLEKEYELLTLQEDYIKDEQRHLKRELKRAQEEVKRIQSVPLVIGQFLEPIDQNTGIVSSTTGMSYVVRILSTLDRELLKPSMSVALHRHSNALVDILPPDSDSSISVMGENEKPDVTYADVGGLDMQKQEIREAVELPLVQADLYEQIGIDPPRGVLLYGPPGTGKTMLVKAVANSTKAAFIRVNGSEFVHKYLGEGPRMVRDVFRLARENAPSIIFIDEVDSIATKRFDAQTGSDREVQRILIELLTQMDGFDQSTNVKVIMATNRADTLDPALLRPGRLDRKIEFPSLRDRRERRLIFGTIASKMSLAPEADLDSLIIRNDSLSGAVIAAIMQEAGLRAVRKNRYVILQSDLEEAYATQVKTDNTVDKFDFYK

How the values were obtained:
Assay in all cases: cryo-EM structure
Rpn7 = molecular target: T1, Rpn7 (S. cerevisiae, UniProt Q06103 1-429)
T1 sequence (looked up): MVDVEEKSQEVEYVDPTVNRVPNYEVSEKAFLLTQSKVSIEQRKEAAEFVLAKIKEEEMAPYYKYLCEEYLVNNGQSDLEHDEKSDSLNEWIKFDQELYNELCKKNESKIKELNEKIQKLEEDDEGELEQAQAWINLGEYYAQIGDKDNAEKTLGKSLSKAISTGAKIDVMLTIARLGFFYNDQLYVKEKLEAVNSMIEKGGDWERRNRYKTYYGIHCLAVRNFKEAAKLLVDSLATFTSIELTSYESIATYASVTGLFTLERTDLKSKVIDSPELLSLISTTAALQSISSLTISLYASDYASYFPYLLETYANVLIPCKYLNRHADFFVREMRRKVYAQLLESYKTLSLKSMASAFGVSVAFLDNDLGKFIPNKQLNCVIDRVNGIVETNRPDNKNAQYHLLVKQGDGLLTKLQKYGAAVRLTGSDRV

Rpt4 = molecular target: T2, Rpt4 (S. cerevisiae, UniProt P53549 1-437)
T2 sequence (looked up): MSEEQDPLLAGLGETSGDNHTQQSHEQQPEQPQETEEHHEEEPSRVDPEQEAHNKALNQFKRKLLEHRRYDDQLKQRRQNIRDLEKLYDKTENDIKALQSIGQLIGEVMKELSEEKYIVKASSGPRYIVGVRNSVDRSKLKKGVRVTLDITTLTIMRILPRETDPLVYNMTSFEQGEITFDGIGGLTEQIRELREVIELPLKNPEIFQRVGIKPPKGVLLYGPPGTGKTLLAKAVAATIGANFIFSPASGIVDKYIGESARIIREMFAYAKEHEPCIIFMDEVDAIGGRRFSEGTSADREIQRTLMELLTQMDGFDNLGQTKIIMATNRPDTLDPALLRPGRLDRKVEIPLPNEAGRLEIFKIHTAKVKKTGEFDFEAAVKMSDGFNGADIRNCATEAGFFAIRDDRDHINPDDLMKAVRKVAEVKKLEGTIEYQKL

Rpt5 = molecular target: T3, Rpt5 (S. cerevisiae, UniProt P33297 1-434)
T3 sequence (looked up): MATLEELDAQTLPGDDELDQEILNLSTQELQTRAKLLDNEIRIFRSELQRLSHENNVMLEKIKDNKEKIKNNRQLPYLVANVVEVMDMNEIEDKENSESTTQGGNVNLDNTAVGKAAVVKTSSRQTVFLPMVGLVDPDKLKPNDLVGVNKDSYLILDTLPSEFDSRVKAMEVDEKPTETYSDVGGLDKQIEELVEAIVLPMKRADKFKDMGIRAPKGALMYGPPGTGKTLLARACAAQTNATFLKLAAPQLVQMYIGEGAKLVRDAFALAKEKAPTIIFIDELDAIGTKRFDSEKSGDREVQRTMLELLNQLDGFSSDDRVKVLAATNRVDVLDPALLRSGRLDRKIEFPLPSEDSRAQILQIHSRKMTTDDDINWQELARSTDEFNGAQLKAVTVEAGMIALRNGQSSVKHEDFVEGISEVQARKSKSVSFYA

Rpn6 = molecular target: T4, Rpn6 (S. cerevisiae, UniProt Q12377 1-434)
T4 sequence (looked up): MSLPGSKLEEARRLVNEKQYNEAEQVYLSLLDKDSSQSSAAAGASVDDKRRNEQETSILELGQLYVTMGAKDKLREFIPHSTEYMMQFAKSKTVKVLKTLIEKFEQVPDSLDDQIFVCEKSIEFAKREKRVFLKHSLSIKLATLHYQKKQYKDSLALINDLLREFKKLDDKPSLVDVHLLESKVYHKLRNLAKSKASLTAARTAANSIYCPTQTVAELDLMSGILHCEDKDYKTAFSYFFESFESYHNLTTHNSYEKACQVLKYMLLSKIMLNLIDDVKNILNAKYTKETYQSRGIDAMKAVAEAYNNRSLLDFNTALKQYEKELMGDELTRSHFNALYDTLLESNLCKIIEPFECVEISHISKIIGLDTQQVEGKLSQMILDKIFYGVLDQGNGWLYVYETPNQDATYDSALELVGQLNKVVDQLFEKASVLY

Rpn5 = molecular target: T5, Rpn5 (S. cerevisiae, UniProt Q12250 1-445)
T5 sequence (looked up): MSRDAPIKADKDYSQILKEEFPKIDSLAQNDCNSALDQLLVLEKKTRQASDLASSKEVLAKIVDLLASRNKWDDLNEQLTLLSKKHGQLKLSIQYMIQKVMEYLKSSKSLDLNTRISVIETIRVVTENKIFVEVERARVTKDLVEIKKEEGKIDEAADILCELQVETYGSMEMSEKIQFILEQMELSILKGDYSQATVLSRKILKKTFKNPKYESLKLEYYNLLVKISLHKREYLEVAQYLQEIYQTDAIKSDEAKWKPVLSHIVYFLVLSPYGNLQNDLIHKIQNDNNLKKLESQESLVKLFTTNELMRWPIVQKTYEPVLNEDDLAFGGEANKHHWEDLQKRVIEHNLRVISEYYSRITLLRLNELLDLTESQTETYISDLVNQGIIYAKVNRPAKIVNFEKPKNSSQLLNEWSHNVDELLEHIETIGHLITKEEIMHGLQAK

Row | Binder | binding result (Rpn7) | binding result (Rpt4) | binding result (Rpt5) | binding result (Rpn6) | binding result (Rpn5)
1 | B1 | binds | – | – | – | –
2 | B2 | – | binds | binds | – | –
3 | B3 | binds | – | – | binds | binds
